Assay results published in article PMC7733459, “A serine protease secreted from Bacillus subtilis cleaves human plasma transthyretin to generate an amyloidogenic fragment” (Communications Biology, 2020).

Target: the molecule itself
Test: dynamic light scattering + native gel or EMSA; fragment at 0.23 mg/ml in 10 mM phosphate buffer, pH 7.4, 25 °C, immediately after dissolving the lyophilisate; native PAGE 5–12% acrylamide

B1: hTTR(59–127) (domain or fragment)
chain: not shown
notes: transthyretin, human, C-terminal proteolytic fragment Thr59-Glu127 (7757.4 Da) from cleavage at the Leu58-Thr59 bond; also called Thr59-Glu127 peptide; source: cleavage of plasma-purified hTTR by B. subtilis subtilisin, purified by semi-preparative RP-HPLC, lyophilized
- binding result: binds
